# Source: the supplement of paper PMC9170038
# How the values were obtained:
# MS2 coat protein [1] = experiment: apparent KD of MS2 coat protein; higher = weaker reporter binding; conditions: Eterna round: R101
# Experimental: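 RNA-MaP: designed FMN/MS2 RNA switches (84 nt design region) are transcribed on-chip within common flanks and titrated with SNAP-549-labelled MS2 coat protein (about 1-3000 nM) in 100 mM Tris pH 7.5, 80 mM KCl, 4 mM MgCl2, without or with 200 uM FMN. Median apparent KD per design; activation ratio = KD,OFF / KD,ON.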
# MS2 coat protein [2] = experiment: apparent KD of MS2 coat protein, switch OFF state (with FMN for OFF switches, without FMN for ON switches); designed switch direction (-1 OFF switch, 1 ON switch): 1; higher = weaker reporter binding; conditions: FMN input: 0 or 200 uM; Eterna round: R93 (includes R88 designs)
# Procedure, shortened: (§1)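 Illumina sequencing clusters served as templates for on-chip transcription of the designed RNA switches. SNAP-549-labelled MS2 coat protein was then titrated in twofold steps from 0.7 or 1.5 nM to 3 µM, allowing 0.8–1.5 h per step at first and 10–20 min per step later. The buffer held 100 mM Tris-HCl pH 7.5, 80 mM KCl and 4 mM MgCl2, without or with constant ligand. Apparent KD is the median per design of normalised cluster binding-curve fits.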
# MS2 coat protein [3] = experiment: apparent KD of MS2 coat protein, switch ON state; designed switch direction (-1 OFF switch, 1 ON switch): 1; higher = weaker reporter binding; conditions: FMN input: 0 or 200 uM; Eterna round: R93 (includes R88 designs)
# Procedure, shortened: as §1
Sequence,apparent KD of MS2 coat protein (MS2 coat protein [1]; input ligand: FMN 200 uM) [nM],apparent KD of MS2 coat protein (MS2 coat protein [1]; input ligand: none) [nM],apparent KD of MS2 coat protein (MS2 coat protein [2]) [nM],apparent KD of MS2 coat protein (MS2 coat protein [3]) [nM]
AAAGAUUUUUAAGGAUAUGACUCCGAAACGGAGUCAGAAGGUGAGGAUCACCCACCUAGCUCAGCGUCGAAAGACGCUGAGCAA [#SharedSequence ExNG1 - 24] (puzzle (switch architecture): Exclusion NG 1),11,8.75,,
AAAUAACUCGAAGGAUAUGACCCUCGAGGUGACUAAAAGUCACCUCGAGGGUCAGAAGGUCGAGGAUCACCCGACCUAGUGAAA [#SharedSequence SLExNG1: 8] (puzzle (switch architecture): Small Loop Exclusion NG 1),65.9,10.3,,
AAAUAACUUGAAGGAUAUGACCCUCGAGGUGACUAAAAGUCACCUCGAGGGUCAGAAGGUCGAGGAUCACCCGACCAAAUAAAU [#SharedSequence SLExNG1: 10] (puzzle (switch architecture): Small Loop Exclusion NG 1),11.2,10.9,,
AAGUGAAAUCAGAAGGCGUGGACGAAACGUCCACGAGGAUAUGAGGAUCACCCAUAUCAGGUCAGCCUGCAAAGCAGGCUGACC [#SharedSequence - IExNG1: 5-2] (puzzle (switch architecture): Inverted Exclusion NG 1),537,30.2,,
AAGUGAAAUCAGAAGGCGUGGACGAAACGUCCACGAGGAUAUGAGGAUCACCCAUGUCAGGUCAGCCUGCAAAGCAGGCUGACC [#SharedSequence - IExNG1: 6-1] (puzzle (switch architecture): Inverted Exclusion NG 1),259,66.2,,
AAUAAAGAUCCUAGAGGAUCACCCUAGGAUAUGAGGCUGCACCUCGGAUAAUCCGAGGUGCAGCCUCAGAAGGAGGAAAUAAAU [#SharedSequence - SLExNG3: 5-2] (puzzle (switch architecture): Small Loop Exclusion NG 3),25.8,11.6,,
AAUAAUUCUUAAGGAUAUCAGUGGCAAAGCCACUGAGAAGGUGAGGAUCACCCACCUACGUGACGCUGGAAACAGCGUCACGAA [#SharedSequence ExNG1 - 30] (puzzle (switch architecture): Exclusion NG 1),23.1,16.2,,
AAUUAAAUCCUAGGAUAUCAGUGGCAAAGCCACUGAGAAGGAGGAUCACCCUUUCAAACGUGACGCUGGAAACAGCGUCACGAA [#SharedSequence - ExNG1-18] (puzzle (switch architecture): Exclusion NG 1),444,699,,
AGACCUGCUCAGAAGGCGGAAACGAGGCUGGAAACAGCCUCGAAUUAAGAUCUUCGAGGAUCACCCGAGGAUAUGAGCAGGUCA [#SharedSequence - IExNG2: 14] (puzzle (switch architecture): Inverted Exclusion NG 2),593,60.7,,
AGGAGAAAUGUAGGAUAUGGGCGGGCGUAUGGGCAAAGCGCAUACGCCCGCCCAGAAGGACAUGAGGAUCACCCAUGUUUCCCU [#Lowering the energy 2] (puzzle (switch architecture): Small Loop Exclusion NG 1),13.8,11.7,,
AGUCGGAGCAGAGGAUAUUACAUGAGGAUCACCCAUGUAUGAACCAAUAGCUGGAAACAGCAAUGUAAGAAGGCUGCUCCGACA (puzzle (switch architecture): Exclusion NG 2),169,12.9,,
AGUGUCAUCGAGAAGGCCUCAACAUGAGGAUCACCCAUUUUGAAAAGUGGGAGGAUAUCGAUGAUACAGCUACGUUUCGUAGCA [salish99_InSLSSNG1_023 #HINGE] (puzzle (switch architecture): Inverted Small Loop Same State NG 1),132,107,,
AUAUGAUUAAGAGGAUAUAUACAACAUGAGGAUCACCCAUGUACCCAUGUAGUAGAAGGUUUAUUUUUAUAUAAUAAUAUAAUU [AstrosLoopssng1#12] (puzzle (switch architecture): Small Loop Same State NG 1),61.4,82.9,,
CCAGUUCUGGCAUCCUUAUUACAUGAGGAUCACCCAUGUUGUGAGGAUAUCCCAACCCACGGUCAGGAGAAGGCACAUAGAGGG [Eduscebira] (puzzle (switch architecture): Exclusion NG 3),5.37,5.89,,
CCGACGACUUAGAAGGCACUCGCAUAAUGCGAGUGAGGAUAUGAGGAUCACCCAUAUCAACGUCGGAGUCACCGAAACGGUGAC [#SharedSequence - IEx NG 4-2] (puzzle (switch architecture): Inverted Exclusion NG 1),7.98,8.45,,
CCGACGCUUCAGAAGGCACUCGCAUAAUGCGAGUGAGGAUAUGAGGAUCACCCAUAUCAACGUCGGAGUCACCGAAACGGUGAC [#SharedSequence - IEx NG 2-2] (puzzle (switch architecture): Inverted Exclusion NG 1),14.4,8.54,,
CGCUAUUACAUGAGGAUCACCCAUGUAUACAUGGGAUUGUCGUAGGAUAUGCAGAAGAUUAAAGUGCAGAAGGACGGUAUAGCG [JR #DistanceClose #Static #StaticP #NP SSNG3 Sub068] (puzzle (switch architecture): Same State NG 3),1.03,3.46,,

Sequence,apparent KD of MS2 coat protein (MS2 coat protein [1]; input ligand: FMN 200 uM) [nM],apparent KD of MS2 coat protein (MS2 coat protein [1]; input ligand: none) [nM],apparent KD of MS2 coat protein (MS2 coat protein [2]) [nM],apparent KD of MS2 coat protein (MS2 coat protein [3]) [nM]
CUGGUUGUCGUAGGAUAUGUAGGAUAUUCCUACAUGAGGAUCACCCAUGUUCGCAUGGAAGAAGGACAGAAGGACGAUGACCAC [salish99_SSNG2_013 #endbits investigation] (puzzle (switch architecture): Same State NG 2),9.19,1050,,
GGAGAUACAUGAGGAUCACCCAUGUAGGAUAUAUAGUAUAUAUAUGGCGAAAGCCAUAUAUAUAUAUAGAAGGGCGUACACACC [#LOL-14] (puzzle (switch architecture): Small Loop Exclusion NG 3),7.28,8.22,,
GGAGAUACAUGAGGAUCACCCAUGUAGGAUAUCGGGCCCGUACCCGGCGAAAGCCGGGUACGGGCCGAGAAGGGCGUACACACC [#LOL-4] (puzzle (switch architecture): Small Loop Exclusion NG 3),9.27,9.3,,
GUGGUGUAGAUACAGGAUAUGUUGCUCGUAACAUGAGGAUCACCCAUGUAUCUAUGAGAUUAAAUGCAGAAGGGUGCACACCACG [Maerveen],,,374,17.3
UAAAAAAAAAGGCAGGAUAUCCAAAAUAAAACAUGAGGAUCACCCAUGUAAAAAAAAAAAAAAUGGGAGAAGGGCCAAAAAAAAU [Mat - Same State 2 - Mod - 159],,,27,14
UAAAAACAUGAGGAUCACCCAUGUGAGAACAUGGGAGGAUAUACGAAGACGAAAGUCAAAGUAGAAGGCCUAAAAU [Mat - Same State 1 - Mod - D171],,,15.6,302
UACAGGAAGAGAGAGGAUAUCCAAAGGAAAACAUGAGGAUCACCCAUGUAAAAGGUAGGAAAUUGGGAGAAGGCUCAAGAGAGAG [salish99-ss2-090],,,32,21
UAUCAUUACACGAAGGAUAUCGAAAAAAGAACAUGAGGAUCACCCAUGUAAAAUAAAACACAGAACGAGAAGGUCGAGGGUGAAG [JR_SS002_Sub701],,,34.2,15.8
UAUCAUUACACGAAGGAUAUCGAAAAAAGAACAUGAGGAUCACCCAUGUGAAAUAAAAUACAGAACGAGAAGGUCGAGGGUGAAG [JR_SS002_Sub702],,,30.3,23.1
UAUCAUUACACGAAGGAUAUCGAUAAUUGAACAUGAGGAUCACCCAUGUGAUAUAUUUUACAGUUCGAGAAGGUCGAGGGUGAAG [JR_SS002_Sub705],,,32.4,16.6
UGAAAACAUGAGGAUCACCCAUGUAAAAACAUGGGAGGAUAUUGAAAAAAAAAAAAAAAACAAGAAGGCCCAAAAA [crooked],,,25.3,37.7
UGGAGACAUGAGGAUCACCCAUGUGAGAAGAGGCGAGGAUAUCGAAAAAAAAAAAAAAAACGAGAAGGCGCGAGAC [salish99-SS1-010],,,41.2,33.3
UGGAGACAUGAGGAUCACCCAUGUGAGAAGAGGCGAGGAUAUCGAAAGAAAGAAGAGAAACGAGAAGGCGCGAGCU [salish99-SS1-037],,,36.1,22.4
UUACAGCACGGGUAGGAUAUGUAGGGUGGUACAUGAGGAUCACCCAUGUAUCCACCCUUCUAACGGCAGAAGGGCCUGUCGCUGC [Riarve],,,15.4,16.9
UUUAAUUACACGAAGGAUAUCGAUUUUCAGACAUGAGGAUCACCCAUGUAGUAGAUUUCCCUGUUCGAGAAGGUCGCGGGUGAAC [JR_SS002_Sub602],,,30.3,39.3
UUUCAUUACACGAAGGAUAUCGCUUUUCCGACAUGAGGAUCACCCAUGUAGUAGACCUCCCUGUUCGAGAAGGUCGCGGGUGAAC [JR_SS002_Sub604],,,32.4,192
